From patent publication US20200237923A1

Molecular target: TNFR1 on L929 cells (UniProt P25118)
Assay: cell-based or functional assay

UniProt P25118, sequence (P25118 30-454 limits assumed): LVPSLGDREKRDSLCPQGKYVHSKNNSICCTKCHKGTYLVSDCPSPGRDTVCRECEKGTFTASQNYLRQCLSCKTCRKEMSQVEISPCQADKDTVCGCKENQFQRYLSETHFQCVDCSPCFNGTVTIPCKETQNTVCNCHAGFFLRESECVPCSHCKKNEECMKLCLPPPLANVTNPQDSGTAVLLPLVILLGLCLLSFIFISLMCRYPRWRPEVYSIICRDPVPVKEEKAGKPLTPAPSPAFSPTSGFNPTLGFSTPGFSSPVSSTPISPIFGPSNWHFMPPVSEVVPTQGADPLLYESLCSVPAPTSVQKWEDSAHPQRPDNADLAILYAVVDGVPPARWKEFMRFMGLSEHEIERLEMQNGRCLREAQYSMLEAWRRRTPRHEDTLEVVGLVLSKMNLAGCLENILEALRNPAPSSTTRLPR

Substance | EC50 of cytotoxic activity against L929 cells | loss of activity against unmodified scTNF-α (L929 cytotoxicity)
PRINT PEG20K scTNF-α (N-terminally PEGylated with PEG-20000) (ligand) | 0.62 pg/mL | –
PRINT PEG5K scTNF-α (N-terminally mono-PEGylated with PEG-5000) (ligand) | 0.58 pg/mL | –
randomly PEGylated scTNF-α (direct conjugation with PEG NHS ester) (ligand) | 4.6 pg/mL | 10 fold
unmodified single-chain TNF-α (scTNF-α), His tag cleaved (ligand) | 0.35 pg/mL | –
citraconylated scTNF-α (lysine side chains globally blocked with citraconic anhydride) (ligand) | 7.6 pg/mL | –
